Where two headings read alike, the source gives them in different places.
Assays:
[1] = biological target: T1, br2(SS) (UniProt P03069 226-248+=GGC, internal_change); experiment: EMSA
T1 chain: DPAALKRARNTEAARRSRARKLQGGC

[2] = biological target: T2, brHis2 (UniProt P03069, L230H;R234H); experiment: EMSA
T2 chain: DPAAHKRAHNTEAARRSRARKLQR

[3] = biological target: T2, brHis2; experiment: fluorescence anisotropy
[4] = biological target: T3, br (UniProt P03069); experiment: EMSA
T3 chain: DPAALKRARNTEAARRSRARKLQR

[5] = biological target: T4, brHis (UniProt P03069, R234H); experiment: EMSA
T4 chain: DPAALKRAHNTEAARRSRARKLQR

[6] = biological target: T2, brHis2; experiment: EMSA

B1: AP-1 (dsDNA)
DNA 1: TGGAGATGACGTCATCTCGT
DNA 2: ACGAGATGACGTCATCTCCA
**Q.** Does B1 bind [1]?
**A.** Result: binds

**Q.** Does B1 bind [2]?
**A.** Result: binds

B2: TMR-GTCAT (dsDNA)
DNA 1: CGCGTCATAATTGAGAGCGC
DNA 2: GCGCTCTCAATTATGACGCG
**Q.** B2 was tested. Which Kd [3] did it give?
**A.** The Kd was about 24 nM.

B3: GTCAT (dsDNA)
DNA 1: CGCGTCATAATTGAGAGCGC
DNA 2: GCGCTCTCAATTATGACGCG
**Q.** What does the source list for B3?
**A.** binding result [4]: no binding; binding result [5]: no binding

B4: MUT (dsDNA)
DNA 1: CGCGTGATAATTGAGAGCGC
DNA 2: GCGCTCTCAATTATCACGCG
**Q.** Does B4 bind [6]?
**A.** Result: no binding
